The source of these data is the supplement of paper PMC10567573.

B1: PTPN9 (parent)
chain: TQHLPRECLPENLGGYVKIDLATW
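Also: lentivirally expressed fusions sorted by FACS into six bins by GFP to DsRed ratio, PSI derived from sequencing read proportions per bin multiplied by bin number.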

This data set covers variants of B1. Description: protein stability index of a GFP-peptide fusion (GPS, HEK-293T) (PSI 1-6); higher = more stable. Conditions: c terminus: a fixed tail appended.
For TQHLPRECLPEDLGGYVKIDLATW [N12D], the protein stability index was 1.93.
As to TQHLPRECLPENSGGYVKIDLATW [L13S], the protein stability index turned out to be 2.41.
The same measure for TQHLPRECLPENTGGYVKIDLATW [L13T]: 2.28; for TQHLPRECLPENHGGYVKIDLATW [L13H]: 2.21.
As to TQHLPRECLPENPGGYVKIDLATW [L13P], the protein stability index came to 2.17.
As for TQHLPRECLPENIGGYVKIDLATW [L13I], the protein stability index came to 1.91.
For the variant TQHLPRECLPENDGGYVKIDLATW [L13D], the protein stability index amounted to 2.65.
With TQHLPRECLPENRGGYVKIDLATW [L13R], the protein stability index worked out at 2.43.
The result for TQHLPRECLPENAGGYVKIDLATW [L13A] reads 2.5; that for TQHLPRECLPENVGGYVKIDLATW [L13V], 2.17.
For TQHLPRECLPENYGGYVKIDLATW [L13Y], the protein stability index was found to be 1.91.
As to TQHLPRECLPENWGGYVKIDLATW [L13W], the protein stability index was 2.54.
Consider TQHLPRECLPENFGGYVKIDLATW [L13F], for which the protein stability index amounted to 1.41.
As to TQHLPRECLPENKGGYVKIDLATW [L13K], the protein stability index came to 1.96.
For TQHLPRECLPENCGGYVKIDLATW [L13C], the protein stability index was determined as 1.55.
On to TQHLPRECLPENGGGYVKIDLATW [L13G], for which the protein stability index was 1.98.
Regarding TQHLPRECLPENQGGYVKIDLATW [L13Q], the protein stability index was 2.2.
For TQHLPRECLPENEGGYVKIDLATW [L13E], the protein stability index stood at 3.46.
On to TQHLPRECLPENMGGYVKIDLATW [L13M], for which the protein stability index is 2.27.
The same measure for TQHLPRECLPENNGGYVKIDLATW [L13N]: 2.58; for TQHLPRECAPENLGGYVKIDLATW [L9A]: 2.55.
In the case of TQHLPRECKPENLGGYVKIDLATW [L9K], the protein stability index is 2.47.
On to TQHLPRECYPENLGGYVKIDLATW [L9Y], for which the protein stability index came out at 1.97.
Turning to TQHLPRECDPENLGGYVKIDLATW [L9D], the protein stability index came out at 2.24.
Regarding TQHLPRECQPENLGGYVKIDLATW [L9Q], the protein stability index was 2.01.
Turning to TQHLPRECEPENLGGYVKIDLATW [L9E], the protein stability index was 2.22.
Take TQHLPRECWPENLGGYVKIDLATW [L9W]: the protein stability index was 1.9.
With TQHLPRECTPENLGGYVKIDLATW [L9T], the protein stability index was 2.01.
Take TQHLPRECRPENLGGYVKIDLATW [L9R]: the protein stability index came to 1.77.
For TQHLPRECVPENLGGYVKIDLATW [L9V], the protein stability index was determined as 1.65.
For TQHLPRECGPENLGGYVKIDLATW [L9G], the protein stability index came to 1.61.
The result for TQHLPRECMPENLGGYVKIDLATW [L9M] reads 2.03.
As for TQHLPRECHPENLGGYVKIDLATW [L9H], the protein stability index was found to be 1.73.
As for TQHLPRECIPENLGGYVKIDLATW [L9I], the protein stability index was 1.85.
For the variant TQHLPRECNPENLGGYVKIDLATW [L9N], the protein stability index came to 1.97.
As to TQHLPRECPPENLGGYVKIDLATW [L9P], the protein stability index amounted to 2.18.
Take TQHLPRECSPENLGGYVKIDLATW [L9S]: the protein stability index came to 1.75.
For TQHLPRECFPENLGGYVKIDLATW [L9F], the protein stability index amounted to 1.94.
On to TQHLPRECCPENLGGYVKIDLATW [L9C], for which the protein stability index was found to be 1.73.
For TQHLPRPCLPENLGGYVKIDLATW [E7P], the protein stability index amounted to 2.52.
Take TQHLPRCCLPENLGGYVKIDLATW [E7C]: the protein stability index was found to be 2.49.
The result for TQHLPRWCLPENLGGYVKIDLATW [E7W] reads 1.93; that for TQHLPRFCLPENLGGYVKIDLATW [E7F], 1.74; that for TQHLPRDCLPENLGGYVKIDLATW [E7D], 2.2.
Regarding TQHLPRQCLPENLGGYVKIDLATW [E7Q], the protein stability index was 1.63.
As to TQHLPRRCLPENLGGYVKIDLATW [E7R], the protein stability index was determined as 2.5.
For TQHLPRHCLPENLGGYVKIDLATW [E7H], the protein stability index is 1.85.
The result for TQHLPRICLPENLGGYVKIDLATW [E7I] reads 2.52; that for TQHLPRNCLPENLGGYVKIDLATW [E7N], 1.86.
As to TQHLPRTCLPENLGGYVKIDLATW [E7T], the protein stability index turned out to be 1.42.
For the variant TQHLPRGCLPENLGGYVKIDLATW [E7G], the protein stability index worked out at 1.62.
Regarding TQHLPRSCLPENLGGYVKIDLATW [E7S], the protein stability index came out at 1.94.
On to TQHLPRLCLPENLGGYVKIDLATW [E7L], for which the protein stability index was determined as 2.25.
For the variant TQHLPRMCLPENLGGYVKIDLATW [E7M], the protein stability index stood at 2.33.
For TQHLPRACLPENLGGYVKIDLATW [E7A], the protein stability index was 1.82.
The same measure for TQHLPRKCLPENLGGYVKIDLATW [E7K]: 1.52; for TQHLPRVCLPENLGGYVKIDLATW [E7V]: 2.22.
Take TQHLPRYCLPENLGGYVKIDLATW [E7Y]: the protein stability index is 2.19.
For TQHLPRECLPENLPGYVKIDLATW [G14P], the protein stability index stood at 2.38.
As for TQHLPRECLPENLCGYVKIDLATW [G14C], the protein stability index worked out at 1.55.
Take TQHLPRECLPENLEGYVKIDLATW [G14E]: the protein stability index is 2.15.
As for TQHLPRECLPENLQGYVKIDLATW [G14Q], the protein stability index was determined as 1.96.
On to TQHLPRECLPENLFGYVKIDLATW [G14F], for which the protein stability index turned out to be 1.93.
With TQHLPRECLPENLAGYVKIDLATW [G14A], the protein stability index stood at 1.96.
Take TQHLPRECLPENLHGYVKIDLATW [G14H]: the protein stability index is 1.91.
Take TQHLPRECLPENLRGYVKIDLATW [G14R]: the protein stability index worked out at 2.04.
As for TQHLPRECLPENLSGYVKIDLATW [G14S], the protein stability index was 2.07.
As for TQHLPRECLPENLKGYVKIDLATW [G14K], the protein stability index turned out to be 1.68.
Turning to TQHLPRECLPENLDGYVKIDLATW [G14D], the protein stability index stood at 2.99.
As to TQHLPRECLPENLMGYVKIDLATW [G14M], the protein stability index was 2.03.
As to TQHLPRECLPENLIGYVKIDLATW [G14I], the protein stability index is 1.74.
The result for TQHLPRECLPENLLGYVKIDLATW [G14L] reads 1.43.
TQHLPRECLPENLNGYVKIDLATW [G14N]: the protein stability index is 2.19.
The same measure for TQHLIRECLPENLGGYVKIDLATW [P5I]: 2.88.
For TQHLKRECLPENLGGYVKIDLATW [P5K], the protein stability index turned out to be 2.68.
The same measure for TQHLVRECLPENLGGYVKIDLATW [P5V]: 1.57; for TQHLTRECLPENLGGYVKIDLATW [P5T]: 1.92.
In the case of TQHLGRECLPENLGGYVKIDLATW [P5G], the protein stability index was 1.73.
The same measure for TQHLMRECLPENLGGYVKIDLATW [P5M]: 1.53; for TQHLHRECLPENLGGYVKIDLATW [P5H]: 1.95; for TQHLLRECLPENLGGYVKIDLATW [P5L]: 2.83.
In the case of TQHLARECLPENLGGYVKIDLATW [P5A], the protein stability index is 2.18.
As for TQHLDRECLPENLGGYVKIDLATW [P5D], the protein stability index worked out at 2.26.
Regarding TQHLNRECLPENLGGYVKIDLATW [P5N], the protein stability index amounted to 2.04.
On to TQHLYRECLPENLGGYVKIDLATW [P5Y], for which the protein stability index stood at 1.64.
As for TQHLSRECLPENLGGYVKIDLATW [P5S], the protein stability index worked out at 1.89.
The same measure for TQHLCRECLPENLGGYVKIDLATW [P5C]: 1.77; for TQHLQRECLPENLGGYVKIDLATW [P5Q]: 1.66; for TQHLWRECLPENLGGYVKIDLATW [P5W]: 2.33.
For the variant TQHLFRECLPENLGGYVKIDLATW [P5F], the protein stability index was determined as 1.82.
The result for TQHLRRECLPENLGGYVKIDLATW [P5R] reads 2.45; that for TQHLERECLPENLGGYVKIDLATW [P5E], 2.6; that for TQHWPRECLPENLGGYVKIDLATW [L4W], 2.14.
For TQHYPRECLPENLGGYVKIDLATW [L4Y], the protein stability index is 1.99.
